40 sequences from the nanobody polyreactivity screen of Harvey et al. (2022) can be followed below.

This data set can be described thus: yeast display, Sf9 membrane polyspecificity reagent, FACS + sequencing; frameworks hold sequencing errors. In a few lines:
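After 36–48 hours of galactose induction, yeast (Saccharomyces cerevisiae BJ5465) displaying a synthetic nanobody library were stained at 4 °C for 1 hour with 10% biotinylated, detergent-solubilized Sf9 membrane reagent. Streptavidin microbeads enriched the stained cells before FACS sorting into low and high (top ~1%) gates on anti-HA and streptavidin fluorescence. Each clone's polyreactivity label reflects its gate of origin.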
With “QVQHVESGGGLLQAGGSLRLTCAASGSTFGTYAMGWYRQAPGKERELVATISIGGITYYADSVKGRFTISRDNAKNTVYLQLNSLKPEDTAVYYCAKDVNDATSRSDPSGDDYWGQGTQVTVSS”, the “polyreactivity (PSR sort gate)” value is on record as “low polyreactivity”. As for “QVQHVESGGGLLQPGGSLRLSCAASGSTFRTNAMGWYRQAPGKERELVAAISRSTGSTYYADSVKGRFTISRDNAKNTVYLQMNSLKTVDSAVFYCNALSGFWGQGTQVTVSS”, the “polyreactivity (PSR sort gate)” value is reported as “low polyreactivity”.

For “QVQHVESGGGLVQAGGSHRLSSAASGSTFIPNAMRWYRQAPGKERELVAAISGSGGRTYYADSVKGRFTISRDNAKNTVYLQMNSLKPEDTAVYYCAASGTSRSRKSYYWGQGTQVTVSS”, the “polyreactivity (PSR sort gate)” value is given as “high polyreactivity”. Next, “QVQHVESGGGLVQAGGSLRLICAASGIIFDYNAMGWYRQAPGKERELVATNNDSGGSTSYAYSVKGRFTISRDKAKNTVYLQMNCLKPDDTAVYYCAVLPVYWYWRNYVYLSGYDYWGQGSQVTVSS”: “low polyreactivity”. Consider “QVQHVESGGGLVQAGGSLRLRCAASGFTFRRYALGWYRQAPGKERELVAAISGSGGSTYYADSVKGRFTISRDKAKNTVYLQMNSLKPEDTAVYYCNALLRAIAEYDYWGQGTQVTVSS”, for which the “polyreactivity (PSR sort gate)” value was “high polyreactivity”. The same measure for “QVQHVESGGGLVQAGGSLRLRCAASGSIFYINAMGWYRQAPGQERELVAAITSDGSTYYADSVKGRFTISGDNAKNSVYLQINSLKPEDTAVYYCAADLTSDQYVYYWYWFYSWGQGTQVTVSS”: “low polyreactivity”; for “QVQHVESGGGLVQAGGSLRLSCAASGFIFAWYTMGWDRQAPGKERELVAAISRSGVRTYYADSVKGRFTISRDNAKNTVYLQMNSLKPEDTAVYYCAVDWYPTMDYWGQGTQVTLSS”: “high polyreactivity”; for “QVQHVESGGGLVQAGGSLRLSCAASGFIFNRNAMGWYRQAPGKERELVAAISTRGSTYYADSVKGRFTISRDNAKNTDYLQMNSLKPEDTAVYYCAKAVYVDQGTYYYCGQGTQVTVSS”: “low polyreactivity”. On to “QVQHVESGGGLVQAGGSLRLSCAASGFIFTYYGMGWYRQAPGKERELVAAITWSGASTYYADSVKGRFTISRDNAKNTVYLQMNSLKPEDSAVYYCNAVWDSGIVQSDETVYKYDYWGQGTQVTVSS”, for which the “polyreactivity (PSR sort gate)” value is given as “low polyreactivity”.

Regarding “QVQHVESGGGLVQAGGSLRLSCAASGFIFVSYTMGWYRHAPGKEWELVATITVSDGSTYYADSVKGRFTISRDNAKNTVYLQMNSLKPEDTAVYYCNKDKVVVRYDYWGQGTQVTVSS”, the “polyreactivity (PSR sort gate)” value was “low polyreactivity”. Next, “QVQHVESGGGLVQAGGSLRLSCAASGFTFGYYAMGWYRQAPGKESELVAAIRSSGGSTYYADSVKGRFTISRDYAKNTDYLQMNSLKPEDSAVYYCAVLYGYLSSSRYGYDSWGKGTQVTVSS”: “high polyreactivity”; “QVQHVESGGGLVQAGGSLRLSCAASGFTFKRNAMGWYRPAPGKERELVAAITWSGGSTYYADSVKGRFTISRDNAKNTVYLQMNSLKPEDTEVYYCAALYRSRYYSGDYWGQGTQVTVSS”: “high polyreactivity”; “QVQHVESGGGLVQAGGSLRLSCAASGFTFRWYTMGWYRQAPGKERELVASIRYGGGSTYYADSVKGRFTISRDNAKNTVYLQMNSLKPEDTAVYYCAAESAWTSPYDYWGQGTQVTVSS”: “high polyreactivity”.

As for “QVQHVESGGGLVQAGGSLRLSCAASGFTFRYNAMGWYRQAPGKKGSWVAAISRTGGSTYYADSVKGRFTISRDNAKNTVYLQMNSLKPEDTAVYYCARAPEGTGGKYGYWGQGTQVTVSS”, the “polyreactivity (PSR sort gate)” value is given as “high polyreactivity”. Next, “QVQHVESGGGLVQAGGSLRLSCAASGFTIVYYGMGRYRQAPGKERELVAAITYSGGRTYYADSVKGRFTISRDNAKNTVYLQMNSLKPEDTAVYYCNAYTQQYRSYGYWGQGTQVTVSS”: “high polyreactivity”.

Consider “QVQHVESGGGLVQAGGSLRLSCAASGGIFYYYAMGWYRPAPGKERELVATISNGGSTYYADSVKGRFTISRDNAKNTVYLQMNSLNPEDTAVYYCAARDGRQPRGYRLVTYYAPMYYWGQGTQVTVSS”, for which the “polyreactivity (PSR sort gate)” value is recorded as “high polyreactivity”. Turning to “QVQHVESGGGLVQAGGSLRLSCAASGGTFGDYAMGWSRQAPGKEREFVASITRSVSNTYYADSVKGRFTISRDNAKNTVYLQMNSLKPEDTAVYYCNADRWYPWRYIMDYWGQGTQVTVSS”, the “polyreactivity (PSR sort gate)” value is “low polyreactivity”. The same measure for “QVQHVESGGGLVQAGGSLRLSCAASGGTFRPYARGWSIQAPGKERELVAAISYTGSTYYADSVKGRFTISRDNAKYTVYLQMNSLKPEDTAVYYCAKDFWYPPRFDYWGQGTQVTVSS”: “low polyreactivity”; for “QVQHVESGGGLVQAGGSLRLSCAASGGTFYTYAMGWYRQAPGKERELVAAITSRGSSTYYADSVKGRFTISRDNANNTVYLQMNSLKPEDTAVYYCARRSQRGMYSMYYWGQGTQVTVSS”: “low polyreactivity”. Next, “QVQHVESGGGLVQAGGSLRLSCAASGIFVDNAMGWYRQARGKERELVAAITSSTDSTYYADSVKGRFPISRDNAKNTVYLQINSLNPEDSAVYYCAVARPGGFYFLVHYGYGYWGQGTQVTVSS”: “low polyreactivity”; “QVQHVESGGGLVQAGGSLRLSCAASGIIFDGNVMGWDRQAPGKEREFVASISISGGSTSYADSVKGRFTISRDNAKNTVYLQMNSLKPEDTAVYYCNTDVGYGRVCRWRYHGDYWGQGTQVTVSS”: “low polyreactivity”; “QVQHVESGGGLVQAGGSLRLSCAASGIIFIVYAMGWYRQAPGKERELVAAISNGGSTYYADSVKGRFTISRDNAKNTVYLQMNSLKPEDTAVYYCAAGGALASQWSKKLYDYWGQGTQVTVSS”: “low polyreactivity”.

For the sequence “QVQHVESGGGLVQAGGSLRLSCAASGIIITGNAMGWYRQAPGKERELVAAISTSGGRTYYADSVKGRFTISRDNAKNTVYLQMNSLKPEDTAVYYCAADDLSGTELYYWGQGTQVTVSS”, the “polyreactivity (PSR sort gate)” value is recorded as “high polyreactivity”.

With “QVQHVESGGGLVQAGGSLRLSCAASGLIFARNAMVWYRQAPGKERELVAAISSSGNTYADSVKGRFTISRDNAKNTVYLQMNSLKPEDTAVFYCAADYVRWGQRKRSRYYYWGHGTQVTVSS”, the “polyreactivity (PSR sort gate)” value is listed as “high polyreactivity”. On to “QVQHVESGGGLVQAGGSLRLSCAASGLIFSWTAMGWYRQAPGKERELVASISYSGGRTYYADSVKGRFTISRDNAKNTVYLQMNSLKPEDTAVYYCAADTNATTDPEMDYWGQGTQVTVSS”, for which the “polyreactivity (PSR sort gate)” value is “low polyreactivity”. For the sequence “QVQHVESGGGLVQAGGSLRLSCAASGLTFANYVMGWYRQAPGKERELVASISISGGSTYYADSVKGRFTISRDNAKNTVYLQMNSLKPEDTAVYYCAASFVSSYQYDYWGQGTQVTVSS”, the “polyreactivity (PSR sort gate)” value is recorded as “high polyreactivity”. For the sequence “QVQHVESGGGLVQAGGSLRLSCAASGLTFLSNAMGWYRPARGNEWELVAAINSGARKFYADSVKGRFTISRDNAKNTVYLQMNCLKPEDTAVYYCNADYGKPSYYDDGDYWGEGTQVTVSS”, the “polyreactivity (PSR sort gate)” value is “low polyreactivity”.

On to “QVQHVESGGGLVQAGGSLRLSCAASGLTLKRNAMGWYRQAPGKERELVAAISGRGGSTYYADSVKGRFTISRDNAKNTVYLQMNSLKPEDTAVYYCAATVQYSPIYDYWGQGTQVTVSS”, for which the “polyreactivity (PSR sort gate)” value was “high polyreactivity”. Next, “QVQHVESGGGLVQAGGSLRLSCAASGNIFDRNAMGWDRQARGKERELVAAISRSGGRTYYADSVKGRFTISRDHAKNTVYLQMNSLKPEDTAVYYCNRRYRKYSSAKYDYWGQGTQVTVSS”: “high polyreactivity”; “QVQHVESGGGLVQAGGSLRLSCAASGNIFTRNPMGWYRQAPGKERELVAAINYSGGSTYYADSVKGRFTISRDNAKNTVYLQMNSLKPEDTAVYYCAKDYAPSTDSYDYWGQGTQVTVSS”: “low polyreactivity”; “QVQHVESGGGLVQAGGSLRLSCAASGRIFGKNDMGWYRQAPGNERELVAAITTSGGSTYYADSVKGRFTISRYNAKNTVYLQMNSLKPEDTAVYYCNAAFQNKGYIRKYKYDYWGQGTQVTVSS”: “low polyreactivity”. The same measure for “QVQHVESGGGLVQAGGSLRLSCAASGRIFGTYAMGWYRQAPGKERELVAAISWSGGRTYYADSVKGRFTISRDNAKNTVYLQMNSLKPEHTAVYYCAARGVPRDGRHHYRYDYWGQGSQVTVSS”: “high polyreactivity”; for “QVQHVESGGGLVQAGGSLRLSCAASGRIFGYYAMGWYRQAHGKQSELVAAITSGGRTNYADSVKGRFTISRDNAKNTVYLQMNSLKPEDTAVYYCAKEYPRYSSPYDYWGQGTQVTVSS”: “low polyreactivity”. Next, “QVQHVESGGGLVQAGGSLRLSCAASGRIFHRNAMGWYRKAPGKERELVAAISYRSGSTYYADSVKGRFTISRDNEKYTVYLQMNSLKPEDTAVYYCAKVRHIRFHYYYGYQSYYYWGQGTQVTLSS”: “high polyreactivity”; “QVQHVESGGGLVQAGGSLRLSCAASGRIFVPYGMGWYRQAPGKERELVAAISLRGGTTYYADSVKGRFTISRDNAKNTVYLQMNSLKPEDTAVYYCAARGYVSVWRPYHWFVAGDYWGQGTQVTVSS”: “high polyreactivity”; “QVQHVESGGGLVQAGGSLRLSCAASGRIFVYYALGWYRQAPGKERELVASISYSGASTYYADSVKGRFTISRDNAKNTVYLQMNSLKPEDTAVYYCNTDGDDFFHVIYDYWGQGTQVTVSS”: “low polyreactivity”. On to “QVQHVESGGGLVQAGGSLRLSCAASGRIFYAYAMGWYRQAPGKERELVASISGGGSTDYADSVKGRFTISRDNAKNTVYLQMNSLKPEDTGVYYCAAQYYLYRSRFDYWGQGTQVTVSS”, for which the “polyreactivity (PSR sort gate)” value is reported as “high polyreactivity”. Next, “QVQHVESGGGLVQAGGSLRLSCAASGRTFAKYAMRWSRQAPGKERELVAAIRWSGGSTYYADSVKGRFTISRDNAKNTVYLQMNSLKPEDTAVYYCAARPALWGRYRGYDYWGQGTQVTVSS”: “high polyreactivity”; “QVQHVESGGGLVQAGGSLRLSCAASGRTFALNAMGWYRQAPGKERELVAAISWSSGRTYYADSVKGRFTISRDNAKNTVYLQMNSLKPEDTAVYYCAALVAHKGDYWGQGTQVTVSS”: “high polyreactivity”. Regarding “QVQHVESGGGLVQAGGSLRLSCAASGRTFDRNAMGWYRQPPGKERELVAGITRSGDSTYADSVKVRFTISRDNAKNTVYLQMNSLKPVDTAVYYCNKEGTIGGTRGYWGQGTQVTVSS”, the “polyreactivity (PSR sort gate)” value is “low polyreactivity”.
